± gives the standard deviation of the averaged measurements.
Experiment: total protein half-life in vivo (active degradation + dilution); higher = more stable protein
[1] = E. coli NCM3722 delta-clpP delta-lon delta-hslV, growth: N-lim chemostat, doubling time 6 h
[2] = E. coli NCM3722 delta-clpP, growth: N-lim chemostat, doubling time 6 h
[3] = E. coli NCM3722 delta-hslV, growth: N-lim chemostat, doubling time 6 h
[4] = E. coli NCM3722 delta-smpB, growth: N-lim chemostat, doubling time 6 h
[5] = wild type E. coli NCM3722, growth: C-lim chemostat, doubling time 3 h
[6] = wild type E. coli NCM3722, growth: C-lim chemostat, doubling time 6 h
[7] = wild type E. coli NCM3722, growth: C-lim chemostat, doubling time 12 h
[8] = wild type E. coli NCM3722, growth: N-lim chemostat, doubling time 12 h
[9] = wild type E. coli NCM3722, growth: P-lim chemostat, doubling time 6 h
[10] = wild type E. coli NCM3722, growth: P-lim chemostat, doubling time 12 h
[11] = E. coli NCM3722 delta-lon, growth: N-lim chemostat, doubling time 6 h
[12] = wild type E. coli NCM3722, growth: N-lim chemostat, doubling time 6 h

Row | Sequence | total protein half-life in vivo [1] [h] | total protein half-life in vivo [2] [h] | total protein half-life in vivo [3] [h] | total protein half-life in vivo [4] [h] | total protein half-life in vivo [5] [h] | total protein half-life in vivo [6] [h] | total protein half-life in vivo [7] [h] | total protein half-life in vivo [8] [h] | total protein half-life in vivo [9] [h] | total protein half-life in vivo [10] [h] | total protein half-life in vivo [11] [h] | total protein half-life in vivo [12] [h]
1 | MTTDQHQEILRTEGLSKFFPGVKALDNVDFSLRRGEIMALLGENGAGKSTLIKALTGVYHADRGTIWLEGQAISPKNTAHAQQLGIGTVYQEVNLLPNMSVADNLFIGREPKRFGLLRRKEMEKRATELMASYGFSLDVREPLNRFSVAMQQIVAICRAIDLSAKVLILDEPTASLDTQEVELLFDLMRQLRDRGVSLIFVTHFLDQVYQVSDRITVLRNGSFVGCRETCELPQIELVKMMLGRELDTHALQRAGRTLLSDKPVAAFKNYGKKGTIAPFDLEVRPGEIVGLAGLLGSGRTETAEVIFGIKPADSGTALIKGKPQNLRSPHQASVLGIGFCPEDRKTDGIIAAASVRENIILALQAQRGWLRPISRKEQQEIAERFIRQLGIRTPSTEQPIEFLSGGNQQKVLLSRWLLTRPQFLILDEPTRGIDVGAHAEIIRLIETLCADGLALLVISSELEELVGYADRVIIMRDRKQVAEIPLAELSVPAIMNAIAA [Q6BEX0] | 4.28 | 6.33 ± 1.2 | 4.45 | 5.51 | 3 ± 0.35 | 6.5 ± 0.63 | 10.7 ± 0.33 | 9.4 | 5.93 ± 0.44 | 11 ± 1.1 |  | 
2 | MTTETRSLYSQLPAIDRLLRDSSFLSLRDTYGHTRVVELLRQMLDEAREVIRGSQTLPAWCENWAQEVDARLTKEAQSALRPVINLTGTVLHTNLGRALQAEAAVEAVAQAMRSPVTLEYDLDDAGRGHRDRALAQLLCRITGAEDACIVNNNAAAVLLMLAATASGKEVVVSRGELVEIGGAFRIPDVMRQAGCTLHEVGTTNRTHANDYRQAVNENTALLMKVHTSNYSIQGFTKAIDEAELVALGKELDVPVVTDLGSGSLVDLSQYGLPKEPMPQELIAAGVSLVSFSGDKLLGGPQAGIIVGKKEMIARLQSHPLKRALRADKMTLAALEATLRLYLHPEALSEKLPTLRLLTRSAEVIQIQAQRLQAPLAAHYGAEFAVQVMPCLSQIGSGSLPVDRLPSAALTFTPHDGRGSHLESLAARWRELPVPVIGRIYDGRLWLDLRCLEDEQRFLEMLLK [P0A821] | 6.33 ± 0.17 | 6.19 ± 0.19 | 5.62 ± 1 | 5.49 ± 0.32 | 3.16 ± 0.51 |  | 11.7 ± 0.94 | 10.6 ± 1 | 6.06 ± 0.4 | 11.9 ± 1.1 | 5.86 ± 0.47 | 5.64 ± 0.39
3 | MTTHDRVRLQLQALEALLREHQHWRNDEPQPHQFNSTQPFFMDTMEPLEWLQWVLIPRMHDLLDNKQPLPGAFAVAPYYEMALATDHPQRALILAELEKLDALFADDAS | 5.66 ± 0.27 |  |  | 3.91 | 2.09 | 4.97 ± 0.19 | 11.8 ± 5.3 | 6.93 | 3.49 ± 1.9 | 7.56 ± 1.8 |  | 3.394 ± 0.03
4 | MTTIVDSNLPVARPSWDHSRLESRIVHLGCGAFHRAHQALYTHHLLESTDSDWGICEVNLMPGNDRVLIENLKKQQLLYTVAEKGAESTELKIIGSMKEALHPEIDGCEGILNAMARPQTAIVSLTVTEKGYCADAASGQLDLNNPLIKHDLENPTAPKSAIGYIVEALRLRREKGLKAFTVMSCDNVRENGHVAKVAVLGLAQARDPQLAAWIEENVTFPCTMVDRIVPAATPETLQEIADQLGVYDPCAIACEPFRQWVIEDNFVNGRPDWDKVGAQFVADVVPFEMMKLRMLNGSHSFLAYLGYLGGYETIADTVTNPAYRKAAFALMMQEQAPTLSMPEGTDLNAYATLLIERFSNPSLRHRTWQIAMDGSQKLPQRLLDPVRLHLQNGGSWRHLALGVAGWMRYTQGVDEQGNAIDVVDPMLAEFQKINAQYQGADRVKALLGLSGIFADDLPQNADFVGAVTAAYQQLCERGARECVAAL | 4.94 ± 2.6 | 3.08 ± 0.24 | 3.228 ± 0.01 | 2.96 ± 0.24 | 2.91 ± 0.27 | 4.32 ± 0.52 | 7.28 ± 2.2 | 6.19 ± 2.3 | 5.28 ± 0.23 | 9.27 ± 0.21 | 3.47 ± 0.17 | 3.33 ± 0.044
5 | MTTKKADYIWFNGEMVRWEDAKVHVMSHALHYGTSVFEGIRCYDSHKGPVVFRHREHMQRLHDSAKIYRFPVSQSIDELMEACRDVIRKNNLTSAYIRPLIFVGDVGMGVNPPAGYSTDVIIAAFPWGAYLGAEALEQGIDAMVSSWNRAAPNTIPTAAKAGGNYLSSLLVGSEARRHGYQEGIALDVNGYISEGAGENLFEVKDGVLFTPPFTSSALPGITRDAIIKLAKELGIEVREQVLSRESLYLADEVFMSGTAAEITPVRSVDGIQVGEGRCGPVTKRIQQAFFGLFTGETEDKWGWLDQVNQ [P0AB80] | 4.699 ± 0.033 | 4.25 ± 1.3 | 3.48 ± 0.06 | 3.75 ± 0.1 | 3.24 ± 0.089 | 5.63 ± 0.072 | 10.9 ± 0.13 | 5.36 ± 0.066 | 5.65 ± 0.27 | 10.9 ± 0.95 | 4.94 ± 1.1 | 3.49 ± 0.13
6 | MTTKNMNTPPGSTQENEIDLLRLVGELWDHRKFIISVTALFTLIAVAYSLLSTPIYQADTLVQVEQKQGNAILSGLSDMIPNSSPESAPEIQLLQSRMILGKTIAELNLRDIVEQKYFPIVGRGWARLTKEKPGELAISWMHIPQLNGQDQQLTLTVGENGHYTLEGEEFTVNGMVGQRLEKDGVALTIADIKAKPGTQFVLSQRTELEAINALQETFTVSERSKESGMLELTMTGDDPQLITRILNSIANNYLQQNIARQAAQDSQSLEFLQRQLPEVRSELDQAEEKLNVYRQQRDSVDLNLEAKAVLEQIVNVDNQLNELTFREAEISQLYKKDHPTYRALLEKRQTLEQERKRLNKRVSAMPSTQQEVLRLSRDVEAGRAVYLQLLNRQQELSISKSSAIGNVRIIDPAVTQPQPVKPKKALNVVLGFILGLFISVGAVLARAMLRRGVEAPEQLEEHGISVYATIPMSEWLDKRTRLRKKNLFSNQQRHRTKNIPFLAVDNPADSAVEAVRALRTSLHFAMMETENNILMITGATPDSGKTFVSSTLAAVIAQSDQKVLFIDADLRRGYSHNLFTVSNEHGLSEYLAGKDELNKVIQHFGKGGFDVITRGQVPPNPSELLMRDRMRQLLEWANDHYDLVIVDTPPMLAVSDAAVVGRSVGTSLLVARFGLNTAKEVSLSMQRLEQAGVNIKGAILNGVIKRASTAYSYGYNYYGYSYSEKE | 4.74 ± 1.7 |  |  |  | 1.74 ± 0.34 | 3.3 | 7.46 |  | 1.53 ± 0.24 |  |  | 
